Measured values reported in PMC3796201 (Nature structural & molecular biology, 2013).

Molecular target: CRM1 (human, recombinant, His-tagged) (human, UniProt O14980 1-1071)
Experiment: pull-down

CRM1 (human, recombinant, His-tagged), sequence (O14980 whole entry): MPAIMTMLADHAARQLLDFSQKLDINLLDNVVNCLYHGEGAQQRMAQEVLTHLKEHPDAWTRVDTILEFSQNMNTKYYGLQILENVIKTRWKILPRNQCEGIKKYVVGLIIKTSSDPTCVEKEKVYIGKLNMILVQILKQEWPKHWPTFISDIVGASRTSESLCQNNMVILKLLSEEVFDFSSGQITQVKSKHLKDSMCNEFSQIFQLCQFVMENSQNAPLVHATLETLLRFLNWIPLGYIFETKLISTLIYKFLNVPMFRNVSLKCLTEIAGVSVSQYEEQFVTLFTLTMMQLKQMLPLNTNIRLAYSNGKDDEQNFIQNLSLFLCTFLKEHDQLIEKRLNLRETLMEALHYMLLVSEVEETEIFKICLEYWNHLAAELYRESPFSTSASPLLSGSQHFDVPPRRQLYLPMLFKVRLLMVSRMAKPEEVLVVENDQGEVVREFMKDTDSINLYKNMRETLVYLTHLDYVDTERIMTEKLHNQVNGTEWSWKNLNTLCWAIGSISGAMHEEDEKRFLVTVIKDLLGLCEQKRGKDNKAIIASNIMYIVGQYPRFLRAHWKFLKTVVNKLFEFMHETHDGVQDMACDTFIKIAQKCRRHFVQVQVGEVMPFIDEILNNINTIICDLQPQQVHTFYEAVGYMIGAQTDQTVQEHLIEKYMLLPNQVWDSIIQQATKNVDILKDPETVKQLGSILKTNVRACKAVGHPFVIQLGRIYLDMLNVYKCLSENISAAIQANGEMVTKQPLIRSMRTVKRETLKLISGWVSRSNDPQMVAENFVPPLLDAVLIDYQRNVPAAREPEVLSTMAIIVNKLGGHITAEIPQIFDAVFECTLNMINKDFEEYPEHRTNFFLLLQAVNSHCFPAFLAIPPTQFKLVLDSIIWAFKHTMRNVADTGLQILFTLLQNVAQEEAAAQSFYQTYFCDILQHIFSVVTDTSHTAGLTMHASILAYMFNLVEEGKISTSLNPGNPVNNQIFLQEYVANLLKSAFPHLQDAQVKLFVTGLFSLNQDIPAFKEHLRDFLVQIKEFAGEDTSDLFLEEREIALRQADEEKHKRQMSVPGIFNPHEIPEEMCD

B1: GST-RAD51 F86E (natural protein, human, UniProt Q06609 1-339, looked up)
chain: MAMQMQLEANADTSVEEESFGPQPISRLEQCGINANDVKKLEEAGFHTVEAVAYAPKKELINIKGISEAKADKILAEAAKLVPMGETTATEFHQRRSEIIQITTGSKELDKLLQGGIETGSITEMFGEFRTGKTQICHTLAVTCQLPIDRGGGEGKAMYIDTEGTFRPERLLAVAERYGLSGSDVLDNVAYARAFNTDHQTQLLYQASAMMVESRYALLIVDSATALYRTDYSGRGELSARQMHLARFLRMLLRLADEFGVAVVITNQVVAQVDGAAMFAADPKKPIGGNIIAHASTTRLYLRKGRGETRICKIYDSPCLPEAEAMFAINADGVGDAKD
  binding result: binds
